Measurements as given in US20190284241A1 (Affibody, published 2019).
Like-named read-outs stand apart in the source and are kept apart here.

Assays:
[1] = target: human FcRn-eGFP on transduced HeLa cells (human) (UniProt P55899); assay: flow cytometry, hFcRn-eGFP HeLa cells, blocks Alexa647-hIgG, pH 6.0
[2] = target: human FcRn-eGFP on transduced HeLa cells (human) (UniProt P55899); assay: as above; remark: listed apart in the source
[3] = target: T1, human FcRn (Biorbyt, cat. no. orb84388) (human, UniProt P55899 24-297; P61769 21-119, limits assumed); assay: SPR Biacore, hFcRn immobilised; sample after 2 weeks at 37 °C (2 w)
T1 construct: Bought soluble protein; not biotinylated on Biacore chips and ELISA coat; also called hFcRn
Procedure: (§1) The His₆-tagged Z variants were further assessed in terms of preserved binding capacity to FcRn after introduction of alterations in the scaffold, as well as after having been subjected to the stability test, i.e. incubated at 37° C. for 2 weeks. Comparative kinetic constants (kₒₙ and koff) and affinities (KD) were determined using a Biacore 2000 instrument. The target protein human FcRn (Biorbyt, cat. no. orb 84388) was immobilized on the carboxylated dextran layer surface of a CM5 chip (GE Healthcare). The immobilization was performed using amine coupling chemistry according to the manufacturer's protocol and using HBS-EP as running buffer. One flow cell surface on the chip was activated and deactivated for use as blank during analyte injections. The immobilization level of hFcRn on the surface was approximately 750 RU. […] Regeneration by three pulses of HBS-EP followed by 10 min equilibration in running buffer was applied after each analyte injection. Kinetic constants were calculated from the sensorgrams using the Langmuir 1:1 model of the BiaEvaluation software 4.1 (GE Healthcare). Curves of the blank surface were subtracted from the curves of the ligand surfaces and the data from the buffer cycles were subtracted from the data of the test-sample cycles to correct for any drift in signal.
T1 sequence (P55899 24-297 limits assumed, chain 1 of 2): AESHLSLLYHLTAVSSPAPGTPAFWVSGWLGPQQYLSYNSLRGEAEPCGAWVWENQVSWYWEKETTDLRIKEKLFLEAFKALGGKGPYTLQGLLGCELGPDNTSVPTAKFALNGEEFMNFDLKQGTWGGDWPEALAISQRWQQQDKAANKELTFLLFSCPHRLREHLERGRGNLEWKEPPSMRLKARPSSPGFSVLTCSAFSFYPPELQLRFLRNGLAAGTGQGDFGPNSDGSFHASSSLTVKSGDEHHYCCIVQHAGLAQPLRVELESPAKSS
T1 sequence (P61769 21-119 limits assumed, chain 2 of 2): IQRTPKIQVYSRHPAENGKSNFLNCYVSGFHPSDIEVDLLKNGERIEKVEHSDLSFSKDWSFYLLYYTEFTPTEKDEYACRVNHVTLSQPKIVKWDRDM

[4] = target: T1, human FcRn (Biorbyt, cat. no. orb84388); assay: SPR Biacore, hFcRn immobilised; sample before the stability test (0)
Procedure: as §1

[5] = target: T2, human FcRn (Biorbyt, cat. no. orb84388) (human, UniProt P55899 24-297; P61769 21-119, limits assumed); assay: ELISA screening; periplasm with the ABD moiety only captured on anti-ABD antibody, biotinylated hFcRn at 2 nM
T2 construct: Bought protein; also called hFcRn
Procedure: After washing as described above, 50 μl ImmunoPure TMB substrate (Thermo Scientific, cat. no. 34021) was added to the wells and the plates were treated according to the manufacturer's recommendations.
T2 sequence (P55899 24-297 limits assumed, chain 1 of 2): as the sequence (P55899 24-297 limits assumed, chain 1 of 2) above
T2 sequence (P61769 21-119 limits assumed, chain 2 of 2): as the sequence (P61769 21-119 limits assumed, chain 2 of 2) above

Sequence of human FcRn-eGFP on transduced HeLa cells (human) (P55899 24-365, chain 1 of 2): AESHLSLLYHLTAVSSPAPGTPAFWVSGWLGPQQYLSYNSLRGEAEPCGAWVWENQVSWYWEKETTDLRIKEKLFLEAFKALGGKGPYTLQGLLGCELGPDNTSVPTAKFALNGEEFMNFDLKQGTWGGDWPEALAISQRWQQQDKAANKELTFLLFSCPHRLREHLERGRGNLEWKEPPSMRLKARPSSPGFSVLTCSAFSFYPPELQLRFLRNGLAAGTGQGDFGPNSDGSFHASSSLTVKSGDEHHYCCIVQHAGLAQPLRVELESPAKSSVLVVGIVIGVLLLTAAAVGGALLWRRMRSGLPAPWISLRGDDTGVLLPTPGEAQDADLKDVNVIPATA
Sequence of human FcRn-eGFP on transduced HeLa cells (human) (b2m, as listed by the source, chain 2 of 2): as the sequence (P61769 21-119 limits assumed, chain 2 of 2) above

Subcutaneous immunoglobulin (SCIg; Gammanorm, Octapharma) (antibody)
IC50 [1]: 120 nM

Intravenous immunoglobulin (IVIg; Octagam, Octapharma) (antibody)
IC50 [1]: 170 nM | IC50 [2]: 150 nM

B1: His6-tagged Z17348 (designed binder)
chain: MGSSHHHHHHLQAEAKYAKEQDAAAHEIRWLPNLTFDQRVAFIHKLARQPEQSSELLSEAKKLSESQAPK
Kd [3]: 6.3 nM | koff [3]: 0.00809 s⁻¹ | kon [3]: 1.28e+06 M⁻¹ s⁻¹ | Kd [4]: 5.5 nM | koff [4]: 0.01 s⁻¹ | kon [4]: 1.82e+06 M⁻¹ s⁻¹

LAEAKVLANRELDKYGVSDYYKNLINNAKTVEGVKALIDEILAALP (other, Streptococcus strain G148, UniProt P19909 254-299, looked up, domain: GA3) [ABD moiety only (periplasm, negative control)]
binding result [5]: no binding (tested: 2 nM)
